From patent US20180155451A1 (published 2018)

Molecular target: T1, FcγRIa extracellular domain with C-terminal His tag (human, UniProt P12314 16-292)
T1 construct: extracellular domain; Expressed in FreeStyle293 cells; used as analyte in Biacore; also called FcgRI; 1a; not shown: His tag at the C terminus
Experiment: SPR (Biacore), captured antibody, FcγRIa analyte; relative to GpH7-A5/GpH7-B3/GpL16-k0 = 100

T1 sequence (P12314 16-292): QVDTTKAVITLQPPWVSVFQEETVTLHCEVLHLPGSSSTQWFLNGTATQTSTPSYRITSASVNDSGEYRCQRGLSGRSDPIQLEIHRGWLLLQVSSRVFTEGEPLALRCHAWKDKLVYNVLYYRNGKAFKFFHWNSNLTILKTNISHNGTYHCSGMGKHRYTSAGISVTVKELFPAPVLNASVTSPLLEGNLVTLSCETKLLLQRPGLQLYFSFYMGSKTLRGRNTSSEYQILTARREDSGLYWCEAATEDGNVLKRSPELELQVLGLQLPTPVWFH

B1: GpH7-A5/GpH7-B3 variant (T335_19Q)/GpL16-k0 (antibody, human IgG1, kappa)
heavy 1: not shown
heavy 2: not shown
light: DIVMTQSPLSLPVTPGEPASISCQASESLVHSNRNTYLHWYLQKPGQSPQLLIYKVSNRFSGVPDRFSGSGSGTDFTLKISRVEAEDVGVYYCSQNTHVPPTFGQGTKVEIERTVAAPSVFIFPPSDEQLKSGTASVVCLLNNFYPREAKVQWKVDNALQSGNSQESVTEQDSKDSTYSLSSTLTLSKADYEKHKVYACEVTHQGLSSPVTKSFNRGEC
notes: Heterodimerized; only the B3 chain altered; also called He Ab T335_19Q
  He/Con_1a: 105 % of control

B2: GpH7-A5/GpH7-B3 variant (S337_07I)/GpL16-k0 (antibody, human IgG1, kappa)
heavy 1: not shown
heavy 2: not shown
light: DIVMTQSPLSLPVTPGEPASISCQASESLVHSNRNTYLHWYLQKPGQSPQLLIYKVSNRFSGVPDRFSGSGSGTDFTLKISRVEAEDVGVYYCSQNTHVPPTFGQGTKVEIERTVAAPSVFIFPPSDEQLKSGTASVVCLLNNFYPREAKVQWKVDNALQSGNSQESVTEQDSKDSTYSLSSTLTLSKADYEKHKVYACEVTHQGLSSPVTKSFNRGEC
notes: Heterodimerized; only the B3 chain altered; also called He Ab S337_07I
  He/Con_1a: 105 % of control

B3: GpH7-A5/GpH7-B3 variant (T335_20W)/GpL16-k0 (antibody, human IgG1, kappa)
heavy 1: not shown
heavy 2: not shown
light: DIVMTQSPLSLPVTPGEPASISCQASESLVHSNRNTYLHWYLQKPGQSPQLLIYKVSNRFSGVPDRFSGSGSGTDFTLKISRVEAEDVGVYYCSQNTHVPPTFGQGTKVEIERTVAAPSVFIFPPSDEQLKSGTASVVCLLNNFYPREAKVQWKVDNALQSGNSQESVTEQDSKDSTYSLSSTLTLSKADYEKHKVYACEVTHQGLSSPVTKSFNRGEC
notes: Heterodimerized; only the B3 chain altered; also called He Ab T335_20W
  He/Con_1a: 106 % of control

B4: GpH7-A5/GpH7-B3 variant (T335_12R)/GpL16-k0 (antibody, human IgG1, kappa)
heavy 1: not shown
heavy 2: not shown
light: DIVMTQSPLSLPVTPGEPASISCQASESLVHSNRNTYLHWYLQKPGQSPQLLIYKVSNRFSGVPDRFSGSGSGTDFTLKISRVEAEDVGVYYCSQNTHVPPTFGQGTKVEIERTVAAPSVFIFPPSDEQLKSGTASVVCLLNNFYPREAKVQWKVDNALQSGNSQESVTEQDSKDSTYSLSSTLTLSKADYEKHKVYACEVTHQGLSSPVTKSFNRGEC
notes: Heterodimerized; only the B3 chain altered; also called He Ab T335_12R
  He/Con_1a: 113 % of control

B5: GpH7-A5/GpH7-B3 variant (S337_20W)/GpL16-k0 (antibody, human IgG1, kappa)
heavy 1: not shown
heavy 2: not shown
light: DIVMTQSPLSLPVTPGEPASISCQASESLVHSNRNTYLHWYLQKPGQSPQLLIYKVSNRFSGVPDRFSGSGSGTDFTLKISRVEAEDVGVYYCSQNTHVPPTFGQGTKVEIERTVAAPSVFIFPPSDEQLKSGTASVVCLLNNFYPREAKVQWKVDNALQSGNSQESVTEQDSKDSTYSLSSTLTLSKADYEKHKVYACEVTHQGLSSPVTKSFNRGEC
notes: Heterodimerized; only the B3 chain altered; also called He Ab S337_20W
  He/Con_1a: 105 % of control

B6: GpH7-A5/GpH7-B3 variant (T335_07I)/GpL16-k0 (antibody, human IgG1, kappa)
heavy 1: not shown
heavy 2: not shown
light: DIVMTQSPLSLPVTPGEPASISCQASESLVHSNRNTYLHWYLQKPGQSPQLLIYKVSNRFSGVPDRFSGSGSGTDFTLKISRVEAEDVGVYYCSQNTHVPPTFGQGTKVEIERTVAAPSVFIFPPSDEQLKSGTASVVCLLNNFYPREAKVQWKVDNALQSGNSQESVTEQDSKDSTYSLSSTLTLSKADYEKHKVYACEVTHQGLSSPVTKSFNRGEC
notes: Heterodimerized; only the B3 chain altered; also called He Ab T335_07I
  He/Con_1a: 109 % of control

B7: GpH7-A5/GpH7-B3 variant (T335_08L)/GpL16-k0 (antibody, human IgG1, kappa)
heavy 1: not shown
heavy 2: not shown
light: DIVMTQSPLSLPVTPGEPASISCQASESLVHSNRNTYLHWYLQKPGQSPQLLIYKVSNRFSGVPDRFSGSGSGTDFTLKISRVEAEDVGVYYCSQNTHVPPTFGQGTKVEIERTVAAPSVFIFPPSDEQLKSGTASVVCLLNNFYPREAKVQWKVDNALQSGNSQESVTEQDSKDSTYSLSSTLTLSKADYEKHKVYACEVTHQGLSSPVTKSFNRGEC
notes: Heterodimerized; only the B3 chain altered; also called He Ab T335_08L
  He/Con_1a: 115 % of control

B8: GpH7-A5/GpH7-B3 variant (T335_15Y)/GpL16-k0 (antibody, human IgG1, kappa)
heavy 1: not shown
heavy 2: not shown
light: DIVMTQSPLSLPVTPGEPASISCQASESLVHSNRNTYLHWYLQKPGQSPQLLIYKVSNRFSGVPDRFSGSGSGTDFTLKISRVEAEDVGVYYCSQNTHVPPTFGQGTKVEIERTVAAPSVFIFPPSDEQLKSGTASVVCLLNNFYPREAKVQWKVDNALQSGNSQESVTEQDSKDSTYSLSSTLTLSKADYEKHKVYACEVTHQGLSSPVTKSFNRGEC
notes: Heterodimerized; only the B3 chain altered; also called He Ab T335_15Y
  He/Con_1a: 107 % of control

B9: GpH7-A5/GpH7-B3 variant (T335_06M)/GpL16-k0 (antibody, human IgG1, kappa)
heavy 1: not shown
heavy 2: not shown
light: DIVMTQSPLSLPVTPGEPASISCQASESLVHSNRNTYLHWYLQKPGQSPQLLIYKVSNRFSGVPDRFSGSGSGTDFTLKISRVEAEDVGVYYCSQNTHVPPTFGQGTKVEIERTVAAPSVFIFPPSDEQLKSGTASVVCLLNNFYPREAKVQWKVDNALQSGNSQESVTEQDSKDSTYSLSSTLTLSKADYEKHKVYACEVTHQGLSSPVTKSFNRGEC
notes: Heterodimerized; only the B3 chain altered; also called He Ab T335_06M
  He/Con_1a: 107 % of control

B10: GpH7-A5/GpH7-B3 variant (S337_19Q)/GpL16-k0 (antibody, human IgG1, kappa)
heavy 1: not shown
heavy 2: not shown
light: DIVMTQSPLSLPVTPGEPASISCQASESLVHSNRNTYLHWYLQKPGQSPQLLIYKVSNRFSGVPDRFSGSGSGTDFTLKISRVEAEDVGVYYCSQNTHVPPTFGQGTKVEIERTVAAPSVFIFPPSDEQLKSGTASVVCLLNNFYPREAKVQWKVDNALQSGNSQESVTEQDSKDSTYSLSSTLTLSKADYEKHKVYACEVTHQGLSSPVTKSFNRGEC
notes: Heterodimerized; only the B3 chain altered; also called He Ab S337_19Q
  He/Con_1a: 105 % of control

B11: GpH7-A5/GpH7-B3 variant (T335_09D)/GpL16-k0 (antibody, human IgG1, kappa)
heavy 1: not shown
heavy 2: not shown
light: DIVMTQSPLSLPVTPGEPASISCQASESLVHSNRNTYLHWYLQKPGQSPQLLIYKVSNRFSGVPDRFSGSGSGTDFTLKISRVEAEDVGVYYCSQNTHVPPTFGQGTKVEIERTVAAPSVFIFPPSDEQLKSGTASVVCLLNNFYPREAKVQWKVDNALQSGNSQESVTEQDSKDSTYSLSSTLTLSKADYEKHKVYACEVTHQGLSSPVTKSFNRGEC
notes: Heterodimerized; only the B3 chain altered; also called He Ab T335_09D
  He/Con_1a: 108 % of control
